± gives the standard deviation of the averaged measurements.
Test system: Saccharomyces cerevisiae
Experiment: protein stability index of tFT-peptide fusion (C-terminal peptide) (PSI (0-1 scale)); higher = more stable (slower turnover)
Details: genetic background: wild type; temperature: 30 C
Experimental: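 Multiplexed protein stability (MPS) profiling in S. cerevisiae. Random 12-aa peptides (tFT-X12 library) are fused to the C-terminus of a sfGFP-mCherry tandem fluorescent timer, after mCherry and a GGGS linker. Cells are FACS-sorted into 8 mCherry/sfGFP bins and deep-sequenced. The protein stability index (PSI) is the read-weighted bin average, scaled from 0 (unstable) to 1 (stable). Only peptides with >10 reads are reported; cells were grown at 30 °C in SC-His with glucose.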
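Also: PSI is a weighted mean of sequencing reads over stability bins, variants kept only with over 10 reads, mCherry proximal and sfGFP distal, peptide attached via GGGS linker.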

Sequence	protein stability index
ASEGRWVSVMGG	0.686 ± 0.05
ASFFTARMYIIF	0.676 ± 0.031
ASFPPPPAAPPP	0.673 ± 0.093
ASGGLVGAWVCV	0.675 ± 0.0091
ASGSSVSFQVSF	0.65 ± 0.069
ASIFPTLKLTYL	0.713 ± 0.011
ASLHAPPLPPLC	0.689 ± 0.02
ASLLGSSPPPFI	0.696 ± 0.072
ASLTNERCGASR	0.679 ± 0.019
ASLVSPSFLGLV	0.677 ± 0.084
ASNRVLRILLPR	0.683 ± 0.05
ASQPNRIPSPPR	0.71 ± 0.01
ASRFSLPLLSLL	0.71 ± 0.14
ASRHGALIVLST	0.6701 ± 0.0053
ASRPPAPVPLPL	0.686 ± 0.015
ASRRSGSYTGYR	0.672 ± 0.035
ASSFVGLRWWAG	0.722 ± 0.012
ASSPAPPSPTPP	0.7 ± 0.05
ASSPPPRISAWL	0.7463 ± 0.0032
ASSRPQRKSGKR	0.77 ± 0.0086
ASSRQCSVEART	0.695 ± 0.0082
ASTFADASSALV	0.71 ± 0.014
ASTLPTQPWPKG	0.729 ± 0.11
ASVCASCYTGGF	0.665 ± 0.03
ATALETWGGAQG	0.691 ± 0.015
ATGLPSPALLHT	0.687 ± 0.043

Sequence	protein stability index
ATLGRCYSSNGL	0.672 ± 0.031
ATPPPVRPSPIL	0.677 ± 0.035
ATPTSPSRPFLL	0.707 ± 0.086
ATTVAIVFCRPA	0.6165 ± 0.0039
AVAERGRPPLKE	0.6893 ± 0.0059
AVAHLSCTSRFG	0.6944 ± 0.0037
AVCCKYFGESLF	0.864 ± 0.0098
AVCWDVSRCLGL	0.7 ± 0.019
AVCWWGSVGGVG	0.6966 ± 0.0069
AVGGWRAAGGGG	0.7114 ± 0.0042
AVHASTLCSSIG	0.6659 ± 0.0043
AVLGDGCGVVGA	0.691 ± 0.072
AVNLWSRFFDLP	0.686 ± 0.052
AVRGYGCGGGTG	0.6971 ± 0.0012
AVSHGLFALPFL	0.703 ± 0.012
AVTRLQPVMRAV	0.6804 ± 0.0054
AVVGCGGGWWWA	0.715 ± 0.13
AVVVWGGGWWWA	0.78 ± 0.15
AVWGWAFASVGG	0.735 ± 0.04
AWESVGVWWGDS	0.76 ± 0.043
AWGELGSGVFGL	0.681 ± 0.032
AWGRWGGGSRVE	0.636 ± 0.02
AWGYFTDTRERY	0.687 ± 0.036
AWQGRVEGGDGA	0.665 ± 0.024
AYCRRPALPWRG	0.714 ± 0.028
AYEGVYAVVANV	0.616 ± 0.014

Sequence	protein stability index
AYICLSGLGRCI	0.672 ± 0.03
AYPWWLILSDAI	0.759 ± 0.016
AYWWSLGRALGC	0.745 ± 0.065
CALWHLLPVNLH	0.645 ± 0.059
CAPPSSPCLCSI	0.701 ± 0.064
CASLATAPPTSQ	0.728 ± 0.026
CAWLCVRFAGVG	0.668 ± 0.062
CCGHGVFSFFSL	0.749 ± 0.023
CCLASVSADKVV	0.703 ± 0.025
CCLGCFLKHGIV	0.652 ± 0.035
CCSIVRSGAGDK	0.748 ± 0.012
CCSSCFVLSKAA	0.6463 ± 0.0031
CDCDESYFNPLG	0.666 ± 0.037
CDLISNFFLIGV	0.633 ± 0.03
CDSVATFCLRLF	0.6234 ± 0.0031
CEHGGWYVGFCS	0.7 ± 0.008
CERIGIRHLIKW	0.657 ± 0.036
CFCSWFWDLVLC	0.628 ± 0.0076
CFDALLPEELSS	0.696 ± 0.044
CFLPLFFFRFVE	0.609 ± 0.027
CFVDHCPIAHIY	0.608 ± 0.022
CGCCTSSPFVSQ	0.687 ± 0.061
CGGDGRTPTTHT	0.665 ± 0.019
CGGGCVVGAGWG	0.727 ± 0.044
CGLMIFSRSYRF	0.704 ± 0.033
CGMIQDKCEGEI	0.738 ± 0.049

Sequence	protein stability index
CGRITADKRILL	0.65 ± 0.098
CGRRGYIVRTFL	0.658 ± 0.071
CGSWVAVESLEL	0.679 ± 0.042
CGVGEGGLLGWL	0.745 ± 0.072
CGVGWGMVEGWR	0.691 ± 0.016
CGWFSVGLMVGG	0.485 ± 0.057
CHSLEDRPDDPC	0.758 ± 0.1
CIGVGTVRGSHG	0.673 ± 0.067
CIKQTNNQNKSN	0.697 ± 0.045
CILYTGYDLGNV	0.7 ± 0.021
CIPVTGLHFRVI	0.6136 ± 0.0035
CITKERVMVKFV	0.538 ± 0.012
CITRIGSYGEET	0.679 ± 0.057
CLCHAPLPLAAP	0.642 ± 0.013
CLFLRLSPSCSR	0.686 ± 0.04
CLGCAFPPHSLY	0.646 ± 0.046
CLGGPAAWPLFS	0.6778 ± 0.0025
CLLAPSSLASPI	0.66 ± 0.043
CLLFSRQLLESP	0.678 ± 0.077
CLLPFCFLSHIF	0.585 ± 0.04
CLLRPTPRPATP	0.779 ± 0.036
CLLYPPYHFYIH	0.567 ± 0.0066
CLMGTIETRLRC	0.637 ± 0.049
CLPQCLNPDFAE	0.645 ± 0.0066
CLRGGGAGDGAS	0.673 ± 0.048
CLRGTYPRLPLT	0.6838 ± 0.0035

Sequence	protein stability index
CLRRRSLSPLFI	0.7252 ± 0.0057
CLSFCFGISVFD	0.616 ± 0.017
CLSSVSLSNVSV	0.669 ± 0.068
CLVKSNVCVAPG	0.643 ± 0.12
CMRVHPGHPFPY	0.633 ± 0.06
CNEKVNRNGYKR	0.69 ± 0.064
CNIASTLEKTCP	0.7043 ± 0.0062
CNNRNKRMRKYI	0.669 ± 0.031
CPFLFSLFPHSF	0.6646 ± 0.0033
CPFTDPRRQQSV	0.646 ± 0.028
CPLGHLCVIRFG	0.59 ± 0.012
CPPSPSPPLPPL	0.712 ± 0.0085
CPRLWGGRLLMR	0.5867 ± 0.003
CPRWHDCLACIE	0.665 ± 0.011
CPSLSALNHPLV	0.701 ± 0.021
CPYIFLLSLGNT	0.651 ± 0.017
CQLCTDPLIDLL	0.667 ± 0.03
CQNLVCRCCLWI	0.6423 ± 0.0059
CQRHGTKIHRRR	0.736 ± 0.053
CQTRTKAKKTQV	0.727 ± 0.0083
CQVDGTMLCSEC	0.652 ± 0.02
CQVVALYCFSLL	0.62 ± 0.068
CRAAAGMVVWHG	0.6835 ± 0.0056
CRATYVGTGGRG	0.656 ± 0.016
CRFRFGFNFSSF	0.581 ± 0.075
CRGVGGRTVING	0.692 ± 0.032

Sequence	protein stability index
CRNSTKFAVLRE	0.654 ± 0.012
CRPVHVNLPFYF	0.5884 ± 0.00092
CRRCRIHSGIYD	0.672 ± 0.034
CRRLLIHTALRV	0.582 ± 0.015
CRRPPWRFSFPF	0.767 ± 0.021
CRSGSVGGIRGR	0.679 ± 0.011
CSFHPSSVSLYS	0.555 ± 0.027
CSFSRRLCHRPT	0.701 ± 0.013
CSHSLFASCSSL	0.695 ± 0.021
CSIVGLGACVSW	0.669 ± 0.0083
CSLCILSWTFPS	0.6464 ± 0.0026
CSLSRFLGCWGF	0.668 ± 0.062
CSMSGPLIIIAR	0.58339 ± 0.00021
CSPSDCGWQLVL	0.604 ± 0.09
CSRFPGSVRVVS	0.615 ± 0.012
CSRSPASAPRPH	0.688 ± 0.018
CSSLPPFPALPR	0.701 ± 0.026
CSSTTFADRRFM	0.753 ± 0.062
CTAPIASWKRVL	0.694 ± 0.029
CTCLHSSGVRHT	0.692 ± 0.047
CTSSVRARRRFR	0.698 ± 0.043
CVFSCLLATVFL	0.533 ± 0.026
CVGARLYMVRDR	0.724 ± 0.046
CVGFCLGKCTMS	0.732 ± 0.014
CVIESIEQCLSR	0.716 ± 0.045

Reference: the supplement of paper PMC10724198
